Test results taken from article PMC12319226 (Frontiers in Bioinformatics, 2025).
Where a chain is given by its changes, count along the chain named.

Experiments:
Assay in all cases: BLI
Details in all cases: both partners purified
[1] = molecular target: T1, fHbp m001767 (Neisseria meningitidis fHbp v3.28, …, point mutant)
T1 chain: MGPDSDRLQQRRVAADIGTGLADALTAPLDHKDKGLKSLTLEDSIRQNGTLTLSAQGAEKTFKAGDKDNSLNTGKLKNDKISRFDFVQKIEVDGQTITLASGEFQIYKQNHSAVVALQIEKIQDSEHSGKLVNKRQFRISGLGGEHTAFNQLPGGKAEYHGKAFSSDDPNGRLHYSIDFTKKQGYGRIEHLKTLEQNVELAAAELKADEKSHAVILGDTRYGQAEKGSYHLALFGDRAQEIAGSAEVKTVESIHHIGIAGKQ

[2] = molecular target: T2, fHbp m001820 (Neisseria meningitidis fHbp v3.28, …, point mutant)
T2 chain: T1 chain with Q223S, T249S, S252G

[3] = molecular target: T3, fHbp m001832 (Neisseria meningitidis fHbp v3.28, …, chimera)
T3 chain: T1 chain with Q223S, T249S, V250D, E251N, S252G

[4] = molecular target: T4, fHbp m001529 (Neisseria meningitidis, fHbp …, point mutant)
T4 chain: T1 chain with Y221L, G222N, E251V, S252G

[5] = molecular target: T5, fHbp m001604 (Neisseria meningitidis, fHbp …, point mutant)
T5 chain: T1 chain with Y221L, G222N, Q223S, S252G

[6] = molecular target: T6, factor H binding protein variant 3.28 (Neisseria meningitidis, fHbp variant …)
T6 construct: also called fHbp v3.28; v3.28 Control (0002)
T6 chain: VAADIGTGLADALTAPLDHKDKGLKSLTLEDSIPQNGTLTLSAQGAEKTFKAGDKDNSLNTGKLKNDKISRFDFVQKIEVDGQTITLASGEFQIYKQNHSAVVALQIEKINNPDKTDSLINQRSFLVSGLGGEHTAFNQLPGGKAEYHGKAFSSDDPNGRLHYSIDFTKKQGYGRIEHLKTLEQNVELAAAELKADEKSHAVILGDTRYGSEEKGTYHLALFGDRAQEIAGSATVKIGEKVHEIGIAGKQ

B1: mAb 1E6 (human) (antibody, V domains shown)
VH: EVQLVQSGAEVKKPGSSVKVSCKASGGTVIDYPITWVRQAPGQGLEWVGGFVPLFRTSNYGQKFQGRVTITADKSTSTASMELNSLTSEDTAIYYCARGDTAMGPFDYWGQGTLVTVSS
VL: SYVLTQPPSLSVAPGKTATLTCGGNNIAGKTVHWYQQRPGQAPVLVISYDSDRPSGIPERFSGSNSANTATLTISRVEAGDEADYYCQVWDRNSDHWVFGGGTKLTVL
notes: source: Expi293, purified (MabSelect SuRe, SEC); copies: 2 + 2
Binder B1 has a Kd [1] of 0.131 nM, a koff [1] of 4.68e-05 s⁻¹ and a kon [1] of 358200 ± 2140 M⁻¹ s⁻¹. It also gave a Kd [2] of 0.531 nM, a koff [2] of 0.000171 s⁻¹ and a kon [2] of 322300 ± 1430 M⁻¹ s⁻¹. It also gave a Kd [3] of 0.435 nM, a koff [3] of 0.00016 s⁻¹ and a kon [3] of 367800 ± 1240 M⁻¹ s⁻¹. The Kd [4] was 0.338 nM, the koff [4] was 0.000156 s⁻¹ and the kon [4] was 460900 ± 3880 M⁻¹ s⁻¹. For the same binder, the Kd [5] was 0.493 nM, the koff [5] was 0.000104 s⁻¹ and the kon [5] was 210000 ± 2260 M⁻¹ s⁻¹. The Kd [6] was 0.77 nM, the koff [6] was 0.000387 s⁻¹ and the kon [6] was 501900 ± 2080 M⁻¹ s⁻¹.
